Data as given in the supplement of paper PMC10567573.

B1: SOAT1 (parent)
chain: KSAAMLAVFAVSAVVHEYALAVCL

Variants of: B1
Assay: protein stability index of a GFP-peptide fusion (GPS, HEK-293T) (PSI 1-6); higher = more stable
Conditions: c terminus: a fixed tail appended
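Note: lentivirally expressed fusions sorted by FACS into six bins by GFP to DsRed ratio, PSI derived from sequencing read proportions per bin multiplied by bin number.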

Protein stability index of substitutions, site by site:
F9: D 4.42; S 2.3; R 2.15; M 2.35; W 3.01; H 3.12; P 1.92; V 1.47; Q 3.43
V15: G 2.69; H 3.15; Q 2.06; R 1.83
V22: C 3.03; A 3.06; T 3.08; I 4.34; H 2.82; R 4.03
A7: Y 3.49; D 2.99; L 3.14; P 2.58; T 3.23; V 2.07; Q 2.59; M 1.54; G 4.09; W 2.69; I 1.49; R 3.98; H 2.91
L6: R 2.02; H 2.73; F 2.21; D 2.74; M 4.28; C 3.42; K 2.46; Q 2.68; I 3.09; N 3.55; E 2.25; P 3.78; G 2.94
A4: L 1.85; W 1.72; N 2.2; H 3.89; K 2.98; V 3.08; Y 2.44; G 2.92; I 1.5; M 2.94; T 3.43
S2: M 2.99; Y 3.58; C 2.54; R 2.91; I 2.12; N 2.09; E 3.57; T 3.26; L 2.66; P 2.97
A13: T 4.82; W 3.01; F 2.17; I 3.04; Q 5.23; N 2.97; K 1.37
A21: I 1.6; E 3.42; F 3.01; S 4.49; M 3.82; N 3.11; D 3.15
V14: W 4; F 1.91; N 2; L 3.6; D 3.41; H 2.91
M5: T 3.55; Q 3.61; F 2.22; E 3.88; N 2.5; R 4.56; P 3.6; A 2.63; D 3.48; C 3.11; L 3.74; S 4.27; W 2.56; G 3.1
L24: D 3.9; N 2.87; K 4.06; T 5.26; F 2.33; A 3.7; P 2.62; I 2.33; Y 1.98
K1: E 3.54; T 4.59; D 4.34; M 2.64; S 5.65; W 3.4; G 4.12; F 2.89; R 3.37; Q 3.7; C 1.84; A 3.09; H 2.28; V 1.84; N 1.73
A10: S 3.12; T 1.83; G 3.62; Q 3.2; E 2.05; V 3.03; H 3.74; P 3.61
C23: H 2.03; A 1.18; K 3.89; P 5.3; I 3.12; S 3.48; V 2.34; Q 2.32; D 3.23
S12: Q 3.61; N 4.18; I 3.04; A 1.63; T 2.46; W 2.99; R 2.11
L20: N 4.2; I 1.49; C 2.93; W 3.92; T 2.31; K 2.58; S 2.62; Q 4.49; E 3.95
A19: Y 2.56; M 2.47; K 2.39; R 3.46; H 2.88; L 3.87; Q 2.44
H16: K 2.88; D 2.58; T 2.1
